Target: β-amyloid1-42 (UniProt P05067)
Experiment: cell-based or functional assay

## cyclic peptide (Ac)ECCK-amide
  ACh rel % Inh @ 100 µM: 87%
